Experimental data taken from the supplement of paper PMC7877785.
± gives the uncertainty stated by the source.

Experiment: self-splicing fitness, log relative to wild type (ln ratio); higher = more splicing; Tetrahymena group I intron in knt gene, E. coli kanamycin selection, DiMSum; sequences stand for … in CUCUCU…GGAGGGAAAAGUUAUCAGGCAUGCACCUGGUAGCUAGUCUUUAAACCAAUAGAUUGCAUCGGUUUAAAAGGCAAGACCGUCAAAUUGCGGGAAAGGGGUCAACAGCCGUUCAGUACCAAGUCUCAGGGGAAACUUUGAGAUGGCCUUGCAAAGGGUAUGGUAAUAAGCUGACGGACAUGGUCCUAACCACGCAGCCAAGUCCUAAGUCAACAGAUCUUCUGUUGAUAUGGAUGCAGUUCACAGACUAAAUGUCGGUCGGGGAAGAUGUAUUCUUCUCAUAAGAUAUAGUCGGACCUCUCCUUAAUGGGAGCUAGCGGAUGAAGUGAUGCAACACUGGAGCCGCUGGGAACUAAUUUGUAUGCGAAAGUAUAUUGAUUAGUUUUGGAGUACUCGUGGUCG
In short: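 Colonies from six replicate transformations of E. coli BL21(DE3) were pooled and amplicon-sequenced on an Illumina HiSeq 2500. The library placed an intron with all eight P1ex-region nucleotides randomised inside the knt kanamycin-resistance gene on pET-22b(+), and cells grew overnight at 37°C or 30°C on LB agar with or without 25 μg/mL kanamycin (plus 100 μg/mL carbenicillin, 50 μM IPTG, 0.2% rhamnose). Fitness is the DiMSum error-weighted combination of wild-type-normalised replicate fold changes, kanamycin versus none.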

Sequence	self-splicing fitness (ln) (30 °C)	self-splicing fitness (ln) (37 °C)
AGUGAGCAAUAUUACGCAUC	-3.32 ± 0.28	-0.505 ± 0.26
UCGUAGCAAUAUUACGGUAU	-2.96 ± 0.22	-1.93 ± 0.28
GGAAAGCAAUAUUACGUCAC	-2.13 ± 0.22	-1.81 ± 0.32
GCACAGCAAUAUUACGCGCG	-1.05 ± 0.066	-0.445 ± 0.075
CCUCAGCAAUAUUACGCUGA	-2.75 ± 0.35	-3.12 ± 0.47
ACUUAGCAAUAUUACGUCCA	-1.56 ± 0.2	-0.528 ± 0.2
GCUCAGCAAUAUUACGCUCA	-1.59 ± 0.11	-0.171 ± 0.11
CCUGAGCAAUAUUACGGGGG	-3.15 ± 0.16	-1.55 ± 0.22
GAAUAGCAAUAUUACGCUGC	-3.36 ± 0.45	-3.32 ± 0.32
AGACAGCAAUAUUACGCUUU	-3.18 ± 0.18	-1.23 ± 0.12
GAGUAGCAAUAUUACGCGGG	-3.59 ± 0.2	-2.55 ± 0.16
GGAUAGCAAUAUUACGGUAA	-2 ± 0.14	-1.45 ± 0.12
CAACAGCAAUAUUACGCGCC	-1.54 ± 0.073	-1.43 ± 0.11
CAAUAGCAAUAUUACGCGAA	-3.11 ± 0.21	-1.67 ± 0.15
GAACAGCAAUAUUACGCGUC	-2.99 ± 0.12	-3.19 ± 0.16
UUCGAGCAAUAUUACGACAA	-0.778 ± 0.23	0.45 ± 0.23
UCUUAGCAAUAUUACGAUGC	-2.66 ± 0.3	
GGAGAGCAAUAUUACGGCGA	-2.22 ± 0.27	-1.69 ± 0.28
GUUAAGCAAUAUUACGUGAG	-0.109 ± 0.052	-0.0542 ± 0.098
CGUCAGCAAUAUUACGAUUC	-0.695 ± 0.096	0.147 ± 0.087
GCUGAGCAAUAUUACGGAGG	-3.67 ± 0.38	-1.14 ± 0.38
AGGUAGCAAUAUUACGUCUC	-3.938 ± 0.036	-2.38 ± 0.047
CAUCAGCAAUAUUACGUGGU	-3.2 ± 0.096	-2.07 ± 0.12
AUGUAGCAAUAUUACGACAA	-0.201 ± 0.091	0.171 ± 0.11
AUGCAGCAAUAUUACGUGUC	-3.68 ± 0.18	-3.18 ± 0.2
CGUGAGCAAUAUUACGCAGU	-3.4 ± 0.41	-2.03 ± 0.44

Sequence	self-splicing fitness (ln) (30 °C)	self-splicing fitness (ln) (37 °C)
AGAUAGCAAUAUUACGGCCC	-0.127 ± 0.19	-0.606 ± 0.23
GAGCAGCAAUAUUACGGACA	-2.64 ± 0.15	-1.53 ± 0.12
CAAAAGCAAUAUUACGAGGC	-4.77 ± 0.39	-2.34 ± 0.18
CAUGAGCAAUAUUACGCUUG	-2.74 ± 0.14	-2.97 ± 0.21
UAGUAGCAAUAUUACGAAAG		-1.97 ± 0.26
UUAGAGCAAUAUUACGGGCU	-2.53 ± 0.32	
GAACAGCAAUAUUACGGGCU	-3.02 ± 0.15	-0.92 ± 0.11
CGCUAGCAAUAUUACGAAGG	-1.06 ± 0.098	-0.735 ± 0.13
ACCUAGCAAUAUUACGUUGC	-2.21 ± 0.1	-1.56 ± 0.14
AGCUAGCAAUAUUACGGAUG	-2.3 ± 0.082	-0.891 ± 0.095
AUCCAGCAAUAUUACGGUGG	-4.66 ± 0.33	-2.49 ± 0.21
UCUGAGCAAUAUUACGUAGA	-0.966 ± 0.1	-0.205 ± 0.14
ACGUAGCAAUAUUACGGUUC	-3.18 ± 0.17	-2.49 ± 0.31
CCUGAGCAAUAUUACGUAGA	-3.23 ± 0.13	-2.26 ± 0.14
AACCAGCAAUAUUACGGUAG	-1.99 ± 0.058	-1.02 ± 0.066
GACGAGCAAUAUUACGUUAC		-0.804 ± 0.25
CUGUAGCAAUAUUACGCCCA	-1.79 ± 0.28	-2.56 ± 0.27
GUCCAGCAAUAUUACGGGGC	-4.08 ± 0.27	-1.8 ± 0.2
GUGAAGCAAUAUUACGGUUA	-0.24 ± 0.054	0.132 ± 0.086
AUCGAGCAAUAUUACGUGGG	-4.14 ± 0.33	-2.42 ± 0.24
UAUGAGCAAUAUUACGUGGC	-3.07 ± 0.2	-2.52 ± 0.46
GCGUAGCAAUAUUACGGUCU	-0.587 ± 0.091	-0.159 ± 0.1
UGAGAGCAAUAUUACGCAUA	-3.24 ± 0.44	
GUCUAGCAAUAUUACGCUUC	-1.25 ± 0.11	-0.47 ± 0.12
AGGCAGCAAUAUUACGAGUU	-1.69 ± 0.11	-0.885 ± 0.1
CCUGAGCAAUAUUACGCAGC		-1.38 ± 0.3

Sequence	self-splicing fitness (ln) (30 °C)	self-splicing fitness (ln) (37 °C)
UUUUAGCAAUAUUACGGUGU	-3.34 ± 0.38	
AAUUAGCAAUAUUACGCUAG	-2.38 ± 0.13	-1.06 ± 0.13
AAUAAGCAAUAUUACGUCAU	-1.39 ± 0.062	-0.608 ± 0.092
UUCCAGCAAUAUUACGGUGG	-3.89 ± 0.27	-3.15 ± 0.24
AAAAAGCAAUAUUACGUUUG	-2.65 ± 0.097	-2.01 ± 0.12
AACAAGCAAUAUUACGCCUC	-1.75 ± 0.14	-0.437 ± 0.15
UUAAAGCAAUAUUACGGGUU	-3.04 ± 0.15	-1.46 ± 0.13
CGCCAGCAAUAUUACGUAAA	-3.21 ± 0.19	-1.46 ± 0.13
GUAAAGCAAUAUUACGAGAA	-2.06 ± 0.14	-0.181 ± 0.21
UUUUAGCAAUAUUACGAUGA	0.0426 ± 0.16	-0.186 ± 0.2
GUGCAGCAAUAUUACGAUCA	-1.14 ± 0.1	-0.487 ± 0.12
CAGUAGCAAUAUUACGCGAG	-2.01 ± 0.16	-0.736 ± 0.12
UUGAAGCAAUAUUACGUUCA	0.472 ± 0.094	0.134 ± 0.11
GUCUAGCAAUAUUACGUUUC	-0.78 ± 0.057	-0.0328 ± 0.073
ACGAAGCAAUAUUACGCUAG	-1.5 ± 0.084	-0.372 ± 0.11
UCAAAGCAAUAUUACGAGAG	-3.08 ± 0.2	-2.21 ± 0.21
CGAAAGCAAUAUUACGGCUU	-4.2 ± 0.22	-2.79 ± 0.3
UGAGAGCAAUAUUACGUACC	-2.65 ± 0.36	
CUAUAGCAAUAUUACGGGAU	-3.92 ± 0.25	-0.972 ± 0.16
AUUGAGCAAUAUUACGUCUG	-3.22 ± 0.21	-3 ± 0.26
UGAAAGCAAUAUUACGGCUA	0.376 ± 0.092	0.259 ± 0.11
CCCGAGCAAUAUUACGUCAA	-3.36 ± 0.2	-3.09 ± 0.2
CACUAGCAAUAUUACGUCGC	-3.66 ± 0.24	-2.66 ± 0.27
AUGAAGCAAUAUUACGUCAG	-0.198 ± 0.057	0.134 ± 0.073
GGAAAGCAAUAUUACGGUAG	-3.02 ± 0.2	-2.98 ± 0.18
CUUGAGCAAUAUUACGCAUA	-3.01 ± 0.36	
